The target in test [1] is T1, human CCR9 (C-C chemokine receptor type 9) (human, UniProt P51686 1-369).
T1 sequence: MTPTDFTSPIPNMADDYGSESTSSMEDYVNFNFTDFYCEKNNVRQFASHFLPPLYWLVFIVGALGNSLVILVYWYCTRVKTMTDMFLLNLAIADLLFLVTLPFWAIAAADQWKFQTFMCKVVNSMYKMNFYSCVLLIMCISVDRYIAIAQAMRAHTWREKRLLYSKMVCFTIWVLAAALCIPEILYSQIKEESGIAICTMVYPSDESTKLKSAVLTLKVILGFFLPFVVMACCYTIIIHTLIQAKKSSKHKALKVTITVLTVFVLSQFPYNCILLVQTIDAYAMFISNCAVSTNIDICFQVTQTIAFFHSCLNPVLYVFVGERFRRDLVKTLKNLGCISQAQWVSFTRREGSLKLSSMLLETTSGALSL
Description: cell-based or functional assay.

The target in test [2] is T1, human CCR9 (C-C chemokine receptor type …). Put plainly: flow cytometry on MOLT-4 cells, unlabeled antibody, n=1. In general terms: In flow cytometry, cells or beads pass a laser one at a time.
Test [3] has the same target. Put plainly: flow cytometry on MOLT-4 cells; antibody incubated 4 days at 23°C.
The target is the same in test [4]. Put plainly: flow cytometry on MOLT-4 cells; antibody incubated 4 days at 40°C.
Test [5] has the same target. Description: flow cytometry on MOLT-4 cells; antibody kept 4 days at 4°C (control).
Test [6] has the same target. Description: flow cytometry on CCR9-expressing MOLT-4 cells, PE anti-human Fc, mean ± SD, n=3.
For test [7] the target is unchanged. Put plainly: flow cytometry on huCCR9-expressing HEK293 cells, PE anti-human Fc, mean ± SD, n=3.
For test [8], the target named is T2, CCR9 N-terminal peptide 1 (TPTDFTSPIPNMADDYGSESTSS) (human, biotinylated in the ELISA of Example 2 (site not stated)).
T2 construct: Biotin is stated for the ELISA; also called N-terminal 1; biotinylated peptide from the N-terminal region of huCCR9
T2 peptide: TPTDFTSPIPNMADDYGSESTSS
Description: ELISA, plate coated with biotinylated CCR9 N-terminal peptide 1, anti-human Fc detection, n=2. (In general: An ELISA detects its analyte on a solid surface through an enzyme-linked reagent.)

The target of test [9] is T3, N-terminal 6 (SPIPNMADDYG) (human).
T3 construct: also called peptide N-terminal 6
T3 peptide: SPIPNMADDYG
Description: peptide inhibition: 1 µg/mL antibody pre-incubated with 100 µg/mL peptide, then binding to MOLT-4 cells by flow cytometry.

Test [10] deals with T1, human CCR9 (C-C chemokine receptor type …). Put plainly: flow cytometry on MOLT-4 cells, pHrodo-labeled antibody, n=1.
For test [11] the target is unchanged. Description: screen of murine hybridoma antibodies for affinity to CCR9 (ELISA, then flow cytometry); format not detailed.
The target in test [12] is T4, hCCR9 peptide P11A-N12A (human).
T4 peptide: TDFTSPIAAMADDYGSEST
Description: 2 x Ala-scan with substituted hCCR9 peptides (Fig. 9A).

For test [13], the target named is T5, hCCR9 peptide N12A-M13A (human).
T5 peptide: TDFTSPIPAAADDYGSEST
The test is described as above.

Test [14] has as its target T6, hCCR9 peptide M13A-A14G (human).
T6 peptide: TDFTSPIPNAGDDYGSEST
The description is as above.

The target in test [15] is T7, hCCR9 peptide D15A-D16A (human).
T7 peptide: TDFTSPIPNMAAAYGSEST
The test is described as above.

The target in test [16] is T8, hCCR9 peptide D16A-Y17A (human).
T8 peptide: TDFTSPIPNMADAAGSEST
The description is as above.

Test [17] concerns the target T4, hCCR9 peptide P11A-N12A. Put plainly: 2 x Ala-scan with substituted hCCR9 peptides (Fig. 9B).
The target of test [18] is T5, hCCR9 peptide N12A-M13A. Described as above.
Test [19] addresses T6, hCCR9 peptide M13A-A14G. Described as above.
The target in test [20] is T7, hCCR9 peptide D15A-D16A. The test is described as above.
The target of test [21] is T8, hCCR9 peptide D16A-Y17A. The description is as above.

Substitutions are numbered along the chain they refer to.

For orientation: EC50 means the concentration giving half of the maximal effect. A high value points to lower potency in that assay.

B1: huC9Mab-16-VL2 (antibody, V domains shown)
VH: EVQLVESGGGLVKPGGSLRLSCAASGFTFSDYWMNWVRQAPGKGLEWVGEIRSKSKNYATHYEESVRGRFTISRDDSKNTLYLQMNSLKTEDTAVYYCMFFYSPYWGQGTLVTVSS
VL: DVVMTQSPSSLSASVGDRVTITCRSSQSLVHSNGITFLHWYQQKPGKAPKLLIYKVSNRFSGVPSRFSGSGSGTDFTLTISSLQPEDFATYYCSQTTHVPWTFGGGTKVEIK
notes: Humanized IgG made in HEK293-6E cells
For B1, the “EC50 of cytotoxicity (ADCC, specific lysis of CFSE-stained MOLT-4 cells), PBMC batch HN#1” value (“EC50 of cytotoxicity … PBMC batch HN#1” below) in [1] amounted to 0.005 nM. Besides, in test [1], the “EC50 of cytotoxicity (ADCC, specific lysis of CFSE-stained MOLT-4 cells), PBMC batch HN#2” value (“EC50 of cytotoxicity … PBMC batch HN#2” below) came to 0.01 nM. For the same molecule, the concentration giving a half-maximal response (EC50) turned out to be 0.27 nM in test [2]; 0.4 nM in [3]; 0.25 nM in [4]; 0.4 nM in test [5]; 0.24 nM in test [6]; 0.1 nM in test [7]. Also, in test [8], a half-maximal effect (EC50) was put at 0.546 nM. Further, the binding result in test [9] is “binds”.

B2: huC9Mab16-VL2 pHrodo (antibody, V domains shown)
VH: B1 VH
VL: B1 VL
modifications: pHrodo fluorophore label (sites not given)
notes: also called pHrodo-labeled huC9Mab16-VL2
In turn, B2 yielded a concentration giving a half-maximal response (EC50) in [10] of 0.51 nM.

B3: huC9Mab-19-VL2 (antibody, V domains shown)
VH: B1 VH with D31N, N35D, K56N, E63A, V66M, R67K, M99A, F101Y
VL: B1 VL with V30L, I35N, V99L
notes: as for B1
Take B3: in test [1], the “EC50 of cytotoxicity … PBMC batch HN#1” value was 0.23 nM. Moreover, in [1], the “EC50 of cytotoxicity … PBMC batch HN#2” value amounted to 0.06 nM. The EC50 in test [2] is 0.6 nM; in test [3], 2.04 nM; in test [4] it was 2 nM; in test [5] it was 1.86 nM; in test [6] it was 0.59 nM; in [7] it was 0.92 nM. This molecule also yielded an EC50 in test [8] of 14.1 nM. Also, in [9], the binding result was “binds”.

B4: huC9Mab19-VL2 pHrodo (antibody, V domains shown)
VH: B1 VH with D31N, N35D, K56N, E63A, V66M, R67K, M99A, F101Y
VL: B1 VL with V30L, I35N, V99L
modifications: pHrodo fluorophore label (sites not given)
notes: also called pHrodo-labeled huC9Mab19-VL2
In test [10], B4 returned a half-maximal effective concentration (EC50) of 2.05 nM.

B5: SRB1 (antibody, V domains shown)
VH: EVQLVESGGGLVKPGGSLRLSCAASGFTFSKFWMNWVRQAPGKGLEWVGEIRLKSNNYATHYAESVKGRFTISRDDSKNTLYLQMNSLKTEDTAVYYCTSDGWFAYWGQGTLVTVSS
VL: DVQMTQSPSSLSASVGDRVTITCRSSQSLVHSNGNTYLNWYQQKPGKAPKLLIYKVSNRFSGVPSRFSGSGSGTDFTLTISSLQPEDFATYYCSQSTHFPRTFGGGTKVEIKR
notes: Detected with anti-human Fc, so it has a human Fc; also called humanised version of the antibody 92R; positive control
B5: the “EC50 of cytotoxicity … PBMC batch HN#1” value in test [1] was found to be 0.0008 nM. Moreover, in test [1], the “EC50 of cytotoxicity … PBMC batch HN#2” value is 0.003 nM. Moreover, the concentration for a half-maximal effect (EC50) in test [2] amounted to 0.07 nM; in test [3], 0.02 nM; in test [4] it was 0.05 nM; in test [5] it was 0.05 nM; in test [6], 0.04 nM; in test [7] it was 0.04 nM. Further, in test [8], the half-maximal effective concentration (EC50) stood at 19.2 nM.

B6: SRB1 pHrodo (antibody, V domains shown)
VH: B5 VH
VL: B5 VL
modifications: pHrodo fluorophore label (sites not given)
notes: also called pHrodo-labeled SRB1
For the molecule B6, it took 0.08 nM to reach a half-maximal effect in test [10] (EC50).

B7: IAb01 (antibody, V domains shown)
VH: EVKVEESGGGLVQPGGSMKLSCVVSGLTFSNFWMTWVRQSPEKGLEWVAEIRLKSNNYATHYAESVKGRFTISRDDSRSSVFLQMNNLRAEDTGIYYCTTDGWFAFWGQGTLVTVSA
VL: QIVLTQSPTIMSASPGEKVTITCSASSSVSYMHWFQQKPGTSPKLWIYSTSNLASGVPARFSGSGSGTSYSLTISRMEAEDAATYYCQQRSSYPFTFGSGTKLEIKR
notes: Murine antibody
Regarding B7, the binding result in test [11] is given as “binds”.

B8: IAb02 (antibody, V domains shown)
VH: B7 VH with V23A, V24A, L27F, T28I, T35N, V48I, R78K, F82Y, T99A
VL: DVVMTQTPLSLPVSLGDQASISCRSSQSLVHSNGNTYLQWHLQKPGQSPKFLIYKVSNRFSGVPDRFSGSGSGTDFTLKISRVEAEDLGVYFCSQSTHVPRTFGGGTKLEIKR
notes: Murine antibody
With B8, in [11], the binding result is recorded as “binds”.

B9: C9Mab-16 (antibody, V domains shown)
VH: EVKLEESGGGLVLPGGSMKLSCVASGFTFSDYWMNWVRQSPEKGLEWVAEIRSKSKNYATHYEESVRGRCTISRDDSKSSVYLQMNNLRAEDTGIYFCMFFYSPYWGQGTLVTVSA
VL: B8 VL with N35I, Y37F, Q39H, H41Y, F51L, S96T, R101W
notes: Murine parental antibody from hybridoma; also called C9M16; clone 16
On to B9, for which the binding result in test [12], in test [13], in [14], in test [15] and in test [16] was “no binding” throughout.

B10: C9Mab-19 (antibody, V domains shown)
VH: EVKLEESGGGLVQPGGSMKLSCVASGFTFSNYWMDWVRQSPEKGLEWVAEIRSKSNNYATHYAESMKGRFTISRDDSKSSVYLQMINLRTEDTGIYYCAFYYSPYWGQGTLVTVSA
VL: B8 VL with V30L, Y37F, Q39H, H41Y, F51L, I80V, S96T, V99L, R101W
notes: Murine parental antibody from hybridoma; also called C9M19; clone 19
Regarding B10, the binding result in test [17], in [18], in [19], in test [20] and in [21] was “no binding” in each case.

For the origin of these results see patent EP4578874A1 (SunRock Biopharma S.L., dated 2025).
